Results published in patent US20240150440A1 (LUMEN BIOSCIENCE, published 2024).
“And” between values parts separate entries of the source, which are not always exact repeats. Equal values may be shown once.

Assays:
[1] = molecular target: T1, SARS-CoV-2 Gamma Variant RBD (SARS-CoV-2 Gamma variant); assay: ELISA, RBD coated
T1 construct: domain: RBD; coated on ELISA plates

[2] = molecular target: T2, SARS-CoV-2 Delta Variant RBD (SARS-CoV-2 Delta variant); assay: ELISA, RBD coated
T2 construct: domain: RBD; coated on ELISA plates

[3] = molecular target: T3, SARS-CoV-2 Alpha Variant RBD (SARS-CoV-2 Alpha variant); assay: ELISA, RBD coated
T3 construct: domain: RBD; coated on ELISA plates

[4] = molecular target: T4, SARS-CoV-2 Beta Variant RBD (SARS-CoV-2 Beta variant); assay: ELISA, RBD coated
T4 construct: domain: RBD; coated on ELISA plates

[5] = molecular target: SARS-CoV-2 Delta Variant spike protein on pseudotyped lentivirus (SARS-CoV-2 Delta variant); assay: cell-based or functional assay
[6] = molecular target: T5, SARS-CoV-2 spike protein on pseudotyped lentivirus (Wuhan Reference Pseudovirus) (SARS-CoV-2, UniProt P0DTC2 14-1273); assay: cell-based or functional assay
[7] = molecular target: SARS-CoV-2 Gamma Variant spike protein on pseudotyped lentivirus (SARS-CoV-2 Gamma variant); assay: cell-based or functional assay
[8] = molecular target: T5, SARS-CoV-2 spike protein on pseudotyped …; assay: cell-based or functional assay; remark: listed apart in the source
[9] = molecular target: T5, SARS-CoV-2 spike protein on pseudotyped …; assay: cell-based or functional assay; remark: listed apart in the source
[10] = molecular target: T5, SARS-CoV-2 spike protein on pseudotyped …; assay: cell-based or functional assay; remark: listed apart in the source

Binder	EC50 [1]	EC50 [2]	EC50 [3]	EC50 [4]	Pseudovirus neutralization IC50 [5]	infectivity % under 10 ug/mL VHH treatment [6]	Pseudovirus neutralization IC50 [7]	Pseudovirus neutralization IC50 [8]	Pseudovirus inhibition IC50 [Cont. 6] [9]	Pseudovirus inhibition IC50 (second row with the same construct name) [Cont. 6] [9]	Pseudovirus inhibition IC50 [Cont. 1] [10]
PP1103 MBP-5HVZ-PAPA-RN-18-H6 (VHH, Form: Dimer) VHH: QVQLVESGGGLVQPGGSLRLSCAASGYYFQIVAMHWYRQAPGKEREGVAGITSTGSTYYGDSVKGRFTISRDNAKNTVYLQMNSLKPEDTAVYYCNAVSTDAQGAAEYWGQGTQVTVSS	92.8 nM	2.69 nM	1.45 nM	227 nM	2.49 nM	57.6%					
PP1153 MBP-5HVZ-PAPA-R5d-D4-H6 (VHH, Form: Dimer) VHH: QVQLVESGGGLVQPGGSLRLSCAASGSDFTINAMHWFRQAPGKQREFVATITSTSSTAYRDSVKGRFTISRDNAKNTVYLQMNSLKPEDTAVYYCAAFAVRDADTAGWTARDYWGQGTQVTVSS		223 nM	0.91 nM			81.7%	62.9 nM				
PP1897 Cerberbody (3-S3b-C8) (other, not shown: large carriers) chain 1: QVQLVESGGGLVQPGGSLRLSCAASGSIENIERMHWYRQAPGKQRELVAVIDSGGTTRYADSVKGRFTISRDNAKNTVYLQMNSLKPEDTAVYYCAAVWLTNAESTQEYWGQGTQVTVSSHHHHHH chain 2: QVQLVESGGGLVQPGGSLRLSCAASGSIENIERMHWYRQAPGKQRELVAVIDSGGTTRYADSVKGRFTISRDNAKNTVYLQMNSLKPEDTAVYYCAAVWLTNAESTQEYWGQGTQVTVSSTVILEYAHRLSQDILSDALQQWASHHHHHHHH					0.09 nM						
PP908 MBP-5HVZ-S2a-C4-H6 (VHH, Form: Dimer) VHH: QVQLVESGGGLVQPGGSLRLSCAASGFSESINATAWFRQAPGKQREGVAGLDGGGSDYYSDSVKGRFTISRDNAKNTVYLQMNSLKPEDTAVYYCAAQLTSSFRGYDFTPSNYDYWGQGTQVTVSS	3.75 nM	2.15 nM	1.74 nM	7.42 nM		47.5%	63.1 nM	1620 nM			
PP1135 MBP-4B0F-PAPA-R5a-B7-H6 (VHH, Form: Heptamer) VHH: QVQLVESGGGLVQPGGSLRLSCAASGAFFSYGAIHWFRQAPGKQREEVAAITSGGSTGYADSVKGRFTISRDNAKNTVYLQMNSLKPEDTAVYYCNAGVVWLPSNAAYNLWGQGTQVTVSS						-0.03%		0.533 nM	2.13 nM		
PP1159 MPB-scTRP-PAPA-R5a-B7-H6 (VHH, Form: Trimer) VHH: QVQLVESGGGLVQPGGSLRLSCAASGAFFSYGAIHWFRQAPGKQREEVAAITSGGSTGYADSVKGRFTISRDNAKNTVYLQMNSLKPEDTAVYYCNAGVVWLPSNAAYNLWGQGTQVTVSS						17.7%		31.9 nM	7.98 nM	215 nM	
PP1133 MBP-4B0F-PAPA-R2d-A6-H6 (VHH, Form: Heptamer) VHH: QVQLVESGGGLVQPGGSLRLSCAASGSGASIGAMHWFRQAPGKGREWVASITSAGNTYYGDSVKGRFTISRDNAKNTVYLQMNSLKPEDTAVYYCNALAGANYESQWEEYNYWGQGTQVTVSS						48.1%		186 nM			180 nM
PP1157 MPB-scTRP-PAPA-R2d-A6-H6 (VHH, Form: Trimer) VHH: QVQLVESGGGLVQPGGSLRLSCAASGSGASIGAMHWFRQAPGKGREWVASITSAGNTYYGDSVKGRFTISRDNAKNTVYLQMNSLKPEDTAVYYCNALAGANYESQWEEYNYWGQGTQVTVSS						32.9%		18.9 nM and 19.8 nM			54.4 nM
PP903 MBP-5HVZ-R1i-A11-H6 (VHH, Form: Dimer) VHH: QVQLVESGGGLVQPGGSLRLSCAASGSILQINAIHWFRQAPGKQREEVAAITSGGSTGYADSVKGRFTISRDNAKNTVYLQMNSLKPEDTAVYYCAATSTRGGLDSDYWGQGTQVTVSS		0.26 nM	0.28 nM			38.4%		56.7 nM	50.4 nM		
PP1106 MBP-5HVZ-PAPA-RN-21-H6 (VHH, Form: Dimer) VHH: QVQLVESGGGLVQPGGSLRLSCAASGLQTSDNAMHWFRQAPGKNRELVAGLTSGTSRNYGDSVKGRFTISRDNAKNTVYLQMNSLKPEDTAVYYCAAFPDVGDASSIGFVYWGQGTQVTVSS	7.84 nM		2.05 nM	3.17 nM		76.6%	63.4 nM				
PP1144 MBP-5HVZ-PAPA-R2c-F6-H6 (VHH, Form: Dimer) VHH: QVQLVESGGGLVQPGGSLRLSCAASGRILAANIVHWYRQAPGKEREGVAGITTGGSNYYSDSVKGRFTISRDNAKNTVYLQMNSLKPEDTAVYYCNALGLGSASGSYESWGQGTQVTVSS						9.18%		11.9 nM			2.75 nM
PP1132 MBP-4B0F-PAPA-R2c-F6-H6 (VHH, Form: Heptamer) VHH: QVQLVESGGGLVQPGGSLRLSCAASGRILAANIVHWYRQAPGKEREGVAGITTGGSNYYSDSVKGRFTISRDNAKNTVYLQMNSLKPEDTAVYYCNALGLGSASGSYESWGQGTQVTVSS						2.65%		4.14 nM			5.66 nM
PP1156 MPB-scTRP-PAPA-R2c-F6-H6 (VHH, Form: Trimer) VHH: QVQLVESGGGLVQPGGSLRLSCAASGRILAANIVHWYRQAPGKEREGVAGITTGGSNYYSDSVKGRFTISRDNAKNTVYLQMNSLKPEDTAVYYCNALGLGSASGSYESWGQGTQVTVSS						18.1%		36.8 nM			63.8 nM
PP1102 MBP-5HVZ-PAPA-RN-17-H6 (VHH, Form: Dimer) VHH: QVQLVESGGGLVQPGGSLRLSCAASGSMYSRAVMHWFRQAPGKEREGVASIGRTGDSYYADSVKGRFTISRDNAKNTVYLQMNSLKPEDTAVYYCAADNLDVVYGNRYWGQGTQVTVSS	1.26 nM		1.55 nM	2 nM		40.9%	21.5 nM	~5110 nM			
PP899 MBP-5HVZ-R5a-B5-H6 (VHH, Form: Dimer) VHH: QVQLVESGGGLVQPGGSLRLSCAASGDDFIENAISWYRQAPGKGREWVAAVTLGGHSNYADSVKGRFTISRDNAKNTVYLQMNSLKPEDTAVYYCNYPVGIPAVAIDGRRSYGYWGQGTQVTVSS						2.43%		2.29 nM	5.25 nM		
PP934 MBP-5HVZ-S3a-H2-H6 (VHH, Form: Dimer) VHH: QVQLVESGGGLVQPGGSLRLSCAASGAAFSKNALHWFRQAPGKGREWVASITSGSGTQYMDSVKGRFTISRDNAKNTVYLQMNSLKPEDTAVYYCAALAYSGGYDYWGQGTQVTVSS	4.78 nM		1.56 nM	13.5 nM			46300 nM				
PP1146 MBP-5HVZ-PAPA-R2d-D3-H6 (VHH, Form: Dimer) VHH: QVQLVESGGGLVQPGGSLRLSCAASGHIFSINNAAWVRQAPGKSREGVATIHSGGGTYYSDSVKGRFTISRDNAKNTVYLQMNSLKPEDTAVYYCNAEVSTGAGSRGRVSDVYWGQGTQVTVSS					4.17 nM	32.8%	6.62 nM	36.2 nM			77 nM
PP1134 MBP-4B0F-PAPA-R2d-D3-H6 (VHH, Form: Heptamer) VHH: QVQLVESGGGLVQPGGSLRLSCAASGHIFSINNAAWVRQAPGKSREGVATIHSGGGTYYSDSVKGRFTISRDNAKNTVYLQMNSLKPEDTAVYYCNAEVSTGAGSRGRVSDVYWGQGTQVTVSS						10.9%		3.97 nM			5.99 nM
PP1158 MPB-scTRP-PAPA-R2d-D3-H6 (VHH, Form: Trimer) VHH: QVQLVESGGGLVQPGGSLRLSCAASGHIFSINNAAWVRQAPGKSREGVATIHSGGGTYYSDSVKGRFTISRDNAKNTVYLQMNSLKPEDTAVYYCNAEVSTGAGSRGRVSDVYWGQGTQVTVSS						28.8%		27.4 nM			123 nM
PP1181 R2d-D3-PP7-H6 (VHH) VHH: QVQLVESGGGLVQPGGSLRLSCAASGHIFSINNAAWVRQAPGKSREGVATIHSGGGTYYSDSVKGRFTISRDNAKNTVYLQMNSLKPEDTAVYYCNAEVSTGAGSRGRVSDVYWGQGTQVTVSS						1.57%		6.95 nM			5.61 nM
PP900 MBP-5HVZ-R5a-F2-H6 (VHH, Form: Dimer) VHH: QVQLVESGGGLVQPGGSLRLSCAASGSISSIEAMSWFRQAPGKQREGVATMASGGDTSYADSVKGRFTISRDNAKNTVYLQMNSLKPEDTAVYYCAAQTYRPDTWGRYTFWGQGTQVTVSS	340 nM		34 nM	709 nM		18.3%		29.6 nM	59.3 nM		
